Measured values from patent US20100120068A1 (PHARMACOME, published 2010).

Molecular target: T1, human α1A-adrenergic receptor (human, UniProt P35348 1-466)
T1 construct: Expressed in CHO-K1 cells either alone (α1A cells) or together with CRELD1α (α1L cells); also called ADRA1A; α1A-subtype
T1 sequence: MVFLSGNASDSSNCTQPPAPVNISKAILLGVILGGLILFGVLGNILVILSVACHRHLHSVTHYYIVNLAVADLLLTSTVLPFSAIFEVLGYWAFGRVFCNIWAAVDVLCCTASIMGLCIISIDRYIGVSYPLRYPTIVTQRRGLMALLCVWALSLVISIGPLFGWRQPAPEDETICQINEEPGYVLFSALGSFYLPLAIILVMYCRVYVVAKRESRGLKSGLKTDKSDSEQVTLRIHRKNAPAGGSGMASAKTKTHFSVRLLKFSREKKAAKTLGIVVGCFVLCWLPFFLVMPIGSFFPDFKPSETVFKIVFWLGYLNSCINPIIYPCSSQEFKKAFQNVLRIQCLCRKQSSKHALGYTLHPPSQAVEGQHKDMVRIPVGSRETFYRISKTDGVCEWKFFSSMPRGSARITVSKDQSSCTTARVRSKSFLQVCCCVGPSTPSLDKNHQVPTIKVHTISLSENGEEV
Experiment: method not described; told in the description only

binding result: binds
B1: CRELD (cysteine-rich with EGF-like domains) 1α protein (other)
chain: QPSPPPQSSPPPQPHPCHTCRGLVDSFNKGLERTIRDNFGGGNTAWEEENLSKYKDSETRLVEVLEGVCSKSDFECHRLLELSEELVESWWFHKQQEAPDLFQWLCSDSLKLCCPAGTFGPSCLPCPGGTERPCGGYGQCEGEGTRGGSGHCDCQAGYGGEACGQCGLGYFEAERNASHLVCSACFGPCARCSGPEESNCLQCKKGWALHHLKCVDIDECGTEGANCGADQFCVNTEGSYECRDCAKACLGCMGAGPGRCKKCSPGYQQVGSKCLDVDECETEVCPGENKQCENTEGGYRCICAEGYKQMEGICVKEQIPESAGFFSEMTEDELVVLQQMFFGIIICALATLAAKGDLVFTAIFIGAVAAMTGYWLSERSDRVLEGFIKGR
notes: The whole coding region was used; No signal peptide limits are stated; also called CRELD1α; CREDL1α
